Source: paper PMC3863716
Read-outs that look alike come from different tables or passages of the source.

Legend:
[1] = system: CCCCCCCCCCCCCC(=O)SCCNC(=O)CCNC(=O)[C@H](O)C(C)(C)COP(=O)(O)OP(=O)(O)OC[C@H]1O[C@@H](n2cnc3c(N)ncnc32)[C@H](O)[C@@H]1OP(=O)(O)O; experiment: purified protein
purified protein = substrate: CCCCCCCCCCCCCC(=O)SCCNC(=O)CCNC(=O)[C@H](O)C(C)(C)COP(=O)(O)OP(=O)(O)OC[C@H]1O[C@@H](n2cnc3c(N)ncnc32)[C@H](O)[C@@H]1OP(=O)(O)O; experiment: purified protein; remark: listed apart in the source

Molecule | Km [1] | Km (purified protein)
human NMT1 (Homo sapiens) | 8.24 ± 0.62 µM | 
human NMT2 (Homo sapiens) (protein) AKHRYQFWDTQPVPKLDEVITSHGAIEPDKDNVRQEPYSLPQGFMWDTLDLSDAEVLKELYTLLNENYVEDDDNMFRFDYSPEFLLWALRPPGWLLQWHCGVRVSSNKKLVGFISAIPANIRIYDSVKKMVEINFLCVHKKLRSKRVAPVLIREITRRVNLEGIFQAVYTAGVVLPKPIATCRYWHRSLNPRKLVEVKFSHLSRNMTLQRTMKLYRLPDVTKTSGLRPMEPKDIKSVRELINTYLKQFHLAPVMDEEEVAHWFLPREHIIDTFVVESPNGKLTDFLSFYTLPSTVMHHPAHKSLKAAYSFYNIHTETPLLDLMSDALILAKSKGFDVFNALDLMENKTFLEKLKFGIGDGNLQYYLYNWRCPGTDSEKVGLVLQ |  | 7.24 ± 0.79 µM
